Laboratory results from US20210196796A1 (SYNTHEKINE, published 2021).

T1: orthogonal hCD122 receptor (hoRb), hCD122 with H133D and Y134F (human, UniProt P14784 27-550)
T1 sequence: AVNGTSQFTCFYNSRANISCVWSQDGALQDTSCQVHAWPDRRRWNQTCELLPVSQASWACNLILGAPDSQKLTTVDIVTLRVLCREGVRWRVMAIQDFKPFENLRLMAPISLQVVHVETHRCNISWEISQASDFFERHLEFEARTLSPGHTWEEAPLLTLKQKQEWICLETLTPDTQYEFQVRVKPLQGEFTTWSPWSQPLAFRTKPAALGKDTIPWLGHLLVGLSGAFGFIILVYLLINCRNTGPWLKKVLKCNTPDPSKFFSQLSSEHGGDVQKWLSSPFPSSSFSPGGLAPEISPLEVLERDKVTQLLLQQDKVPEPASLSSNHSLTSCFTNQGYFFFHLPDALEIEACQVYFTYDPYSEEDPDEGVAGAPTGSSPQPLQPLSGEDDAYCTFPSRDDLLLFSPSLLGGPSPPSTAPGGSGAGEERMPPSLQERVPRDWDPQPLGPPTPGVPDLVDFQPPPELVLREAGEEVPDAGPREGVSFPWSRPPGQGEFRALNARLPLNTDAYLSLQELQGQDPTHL


Key:
[1] = molecular target: T1, orthogonal hCD122 receptor (hoRb), …; assay: cell-based or functional assay
[2] = molecular target: T1, orthogonal hCD122 receptor (hoRb), …; assay: cell-based or functional assay; remark: listed apart in the source
For Relative Proliferation Fold Change 3F8 1:10 in this document: reference of the scale not given here.
For Relative Proliferation Fold Change 3F8 1:2 in this document: reference of the scale not given here.
For Relative Proliferation Fold Change 3F8 1:50 in this document: reference of the scale not given here.
For Relative Proliferation Fold Change NKL 1:10 in this document: reference of the scale not given here.
For Relative Proliferation Fold Change NKL 1:2 in this document: reference of the scale not given here.
For Relative Proliferation Fold Change NKL 1:50 in this document: reference of the scale not given here.

| Binder | NKL Ortho Proliferation Signal 1:2 [1] | NKL Ortho Proliferation Signal 1:10 [1] | NKL Ortho Proliferation Signal 1:50 [1] | Relative Proliferation Fold Change NKL 1:2 [1] [fold] | Relative Proliferation Fold Change NKL 1:10 [1] [fold] | Relative Proliferation Fold Change NKL 1:50 [1] [fold] | 3F8 Ortho Proliferation Signal 1:2 [2] [cts/min] | 3F8 Ortho Proliferation Signal 1:10 [2] [cts/min] | 3F8 Ortho Proliferation Signal 1:50 [2] [cts/min] | Relative Proliferation Fold Change 3F8 1:2 [2] [fold] | Relative Proliferation Fold Change 3F8 1:10 [2] [fold] | Relative Proliferation Fold Change 3F8 1:50 [2] [fold] |
| --- | --- | --- | --- | --- | --- | --- | --- | --- | --- | --- | --- | --- |
| L18Y, SQVLKA (ligand) APTSSSTKKTQLQLSQLYVLLKAILNGINNYKNPKLTRMLTFKFYMPKKATELKHLQCLEEELKPLEEVLNLAQSKNFHLRPRDLISNINVIVLELKGSETTFMCEYADETATIVEFLNRWITFCQSIISTLT | 37300 | 27000 | 14800 | 3.34 | 2.09 | 1.19 | 47600 | 51400 | 28200 | 214 | 101 | 64 |
| L18T, SQVLKA (ligand) APTSSSTKKTQLQLSQLTVLLKAILNGINNYKNPKLTRMLTFKFYMPKKATELKHLQCLEEELKPLEEVLNLAQSKNFHLRPRDLISNINVIVLELKGSETTFMCEYADETATIVEFLNRWITFCQSIISTLT | 25000 | 20100 | 11300 | 2.37 | 1.49 | 0.87 | 61100 | 51800 | 25700 | 2.05 | 6.27 | 13.8 |
| SQILKA (ligand) APTSSSTKKTQLQLSQLLILLKAILNGINNYKNPKLTRMLTFKFYMPKKATELKHLQCLEEELKPLEEVLNLAQSKNFHLRPRDLISNINVIVLELKGSETTFMCEYADETATIVEFLNRWITFCQSIISTLT | 55300 | 52500 | 24500 | 4.01 | 3.44 | 1.67 | 38500 | 45700 | 20300 | 45.8 | 34.2 | 34.4 |
| T3A, SQVLKA (ligand) APASSSTKKTQLQLSQLLVLLKAILNGINNYKNPKLTRMLTFKFYMPKKATELKHLQCLEEELKPLEEVLNLAQSKNFHLRPRDLISNINVIVLELKGSETTFMCEYADETATIVEFLNRWITFCQSIISTLT | 69100 | 79500 | 47000 | 3.91 | 4.22 | 2.67 | 41400 | 39300 | 19500 | 17.1 | 11 | 8.68 |
| T3G, SQVLKA (ligand) APGSSSTKKTQLQLSQLLVLLKAILNGINNYKNPKLTRMLTFKFYMPKKATELKHLQCLEEELKPLEEVLNLAQSKNFHLRPRDLISNINVIVLELKGSETTFMCEYADETATIVEFLNRWITFCQSIISTLT | 58900 | 66900 | 32200 | 3.94 | 3.76 | 1.92 | 31800 | 24400 | 9460 | 20.4 | 19.4 | 7.14 |
| SQVSKA (ligand) APTSSSTKKTQLQLSQLLVSLKAILNGINNYKNPKLTRMLTFKFYMPKKATELKHLQCLEEELKPLEEVLNLAQSKNFHLRPRDLISNINVIVLELKGSETTFMCEYADETATIVEFLNRWITFCQSIISTLT | 59500 | 73700 | 45000 | 1 | 1.73 | 1.91 | 47300 | 56600 | 33100 | 0.81 | 1.23 | 1.29 |
| L18D, SQVLKA (ligand) APTSSSTKKTQLQLSQLDVLLKAILNGINNYKNPKLTRMLTFKFYMPKKATELKHLQCLEEELKPLEEVLNLAQSKNFHLRPRDLISNINVIVLELKGSETTFMCEYADETATIVEFLNRWITFCQSIISTLT | 6380 | 8160 | 7460 | 0.6 | 0.59 | 0.56 | 44000 | 49600 | 25200 | 92.5 | 81.3 | 28.4 |
| ΔL19, SQ_LKA (ligand) APTSSSTKKTQLQLSQLLLLKAILNGINNYKNPKLTRMLTFKFYMPKKATELKHLQCLEEELKPLEEVLNLAQSKNFHLRPRDLISNINVIVLELKGSETTFMCEYADETATIVEFLNRWITFCQSIISTLT | 6440 | 9120 | 8470 | 0.49 | 0.62 | 0.59 | 736 | 1070 | 1540 | 1.11 | 1.27 | 1.98 |
| ΔD20, SQV_KA (ligand) APTSSSTKKTQLQLSQLLVLKAILNGINNYKNPKLTRMLTFKFYMPKKATELKHLQCLEEELKPLEEVLNLAQSKNFHLRPRDLISNINVIVLELKGSETTFMCEYADETATIVEFLNRWITFCQSIISTLT | 6790 | 9390 | 8690 | 0.52 | 0.59 | 0.56 | 1010 | 1270 | 1370 | 1.51 | 1.35 | 1.66 |
